This note sets out measurements from patent US20120329994A1.

In test [1] the target is WNV DIII (residues 296-404) of the New York 1999 strain, expressed in E. coli and refolded (West Nile virus, New York 1999 strain) (UniProt Q9Q6P4). In words: SPR. (In general: SPR reads the build-up and loss of mass on a sensor chip optically.)
The target of test [2] is WNV E ectodomain (residues 1-404) of the New York 1999 strain, expressed in E. coli and refolded (West Nile virus, New York 1999 strain) (UniProt Q9Q6P4). In words: SPR.

pKd: −log10 of the molar value.

A word on the pKd: it is the Kd on a negative log10 scale, so that one unit is a factor of ten. Low readings indicate a high Kd, high ones a low Kd. Take “pHu-E16 (plant-produced humanized E16 monoclonal antibody, made in N. benthamiana)”: the pKd in test [1] is 7.39; in test [2] it was 7.34.
Turning to “mHu-E16 (humanized E16 monoclonal antibody produced in CHO cells)”, the pKd in test [1] was 7.49; in test [2], 7.35.
